Assay results published in patent US8685890 (Bicycle, dated 2014).
Where “and” joins values, the source holds several entries; their conditions need not be identical. Equal entries are not always repeated. Starred links: 1 amine or outer side, 2 acyl side, 3 side chain; linkers in the order of their positions; H or OH if unused. Positions of bridges follow the written chain, without caps; N, C: chain ends. No end group written: not given here. TBMB = c1c(C[*:1])cc(C[*:3])cc1C[*:2]

Assays:
kallikrein = kallikrein (UniProt P03952 20-638, limits assumed); assay: cell-based or functional assay
Sequence of kallikrein (P03952 20-638 limits assumed): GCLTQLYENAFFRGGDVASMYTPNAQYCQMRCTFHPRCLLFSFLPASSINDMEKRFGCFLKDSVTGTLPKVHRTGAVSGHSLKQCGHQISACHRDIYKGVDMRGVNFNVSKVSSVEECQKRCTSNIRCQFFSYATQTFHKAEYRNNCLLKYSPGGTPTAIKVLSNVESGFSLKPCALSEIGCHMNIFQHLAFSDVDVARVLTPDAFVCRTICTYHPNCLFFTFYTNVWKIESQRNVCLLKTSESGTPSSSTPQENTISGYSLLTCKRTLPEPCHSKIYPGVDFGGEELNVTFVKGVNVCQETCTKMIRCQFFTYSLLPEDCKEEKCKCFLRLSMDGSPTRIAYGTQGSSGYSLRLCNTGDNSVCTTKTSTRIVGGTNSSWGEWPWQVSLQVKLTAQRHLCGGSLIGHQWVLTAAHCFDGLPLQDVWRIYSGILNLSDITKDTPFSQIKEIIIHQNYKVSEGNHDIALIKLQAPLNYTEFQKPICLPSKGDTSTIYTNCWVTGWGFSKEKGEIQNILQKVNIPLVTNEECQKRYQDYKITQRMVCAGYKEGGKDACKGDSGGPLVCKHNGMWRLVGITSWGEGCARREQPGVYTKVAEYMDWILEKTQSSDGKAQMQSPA

[1] = target: T1, Mdm2 (construct limits not stated) (UniProt Q00987 2-125, limits assumed); assay: fluorescence anisotropy (FIG. 3); PK15L1-PEP48L1 bicycle (FIG. 3)
T1 sequence (Q00987 2-125 limits assumed): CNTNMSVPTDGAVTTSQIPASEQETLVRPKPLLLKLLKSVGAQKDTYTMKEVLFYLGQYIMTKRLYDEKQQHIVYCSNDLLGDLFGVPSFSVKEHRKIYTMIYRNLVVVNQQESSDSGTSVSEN

MDM2 (res 2-125) [2] = target: T2, MDM2 (res 2-125) (UniProt Q00987 2-125); assay: fluorescence anisotropy titration, MDM2 (res 2-125) titrated into the peptide, quadratic 1:1 fit with linear drift term; unit from the axis MDM2, uM
T2 construct: range 2-125
T2 sequence (Q00987 2-125 limits assumed): as above

bovine serum albumin [3] = target: T3, bovine serum albumin (bovine, UniProt P02769 25-607); assay: fluorescence anisotropy titration of BSA into 500 nM peptide
T3 construct: also called BSA
T3 sequence (P02769 25-607 limits assumed): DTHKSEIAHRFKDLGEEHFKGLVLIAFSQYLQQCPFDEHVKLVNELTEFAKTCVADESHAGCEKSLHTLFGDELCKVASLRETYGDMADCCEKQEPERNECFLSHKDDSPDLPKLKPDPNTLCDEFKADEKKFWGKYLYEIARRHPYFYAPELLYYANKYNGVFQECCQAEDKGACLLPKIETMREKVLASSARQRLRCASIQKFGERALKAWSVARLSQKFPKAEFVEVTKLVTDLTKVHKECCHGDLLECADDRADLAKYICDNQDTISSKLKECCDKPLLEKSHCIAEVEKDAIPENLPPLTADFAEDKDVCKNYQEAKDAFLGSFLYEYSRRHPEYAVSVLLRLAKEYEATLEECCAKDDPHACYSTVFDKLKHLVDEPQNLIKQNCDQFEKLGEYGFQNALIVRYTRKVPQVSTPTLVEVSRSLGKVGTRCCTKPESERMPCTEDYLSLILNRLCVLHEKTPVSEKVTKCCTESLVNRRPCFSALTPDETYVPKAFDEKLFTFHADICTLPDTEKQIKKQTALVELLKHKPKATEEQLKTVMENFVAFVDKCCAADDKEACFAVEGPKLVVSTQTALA

[4] = target: T1, Mdm2 (construct limits not stated at …); assay: fluorescence anisotropy titration of 18.8 µM Mdm2 into 500 nM peptide; data could not be fitted
MDM2 (res 2-125) [5] = target: T2, MDM2 (res 2-125); assay: fluorescence anisotropy titration, λex=295 nm
MDM2 (res 2-125) [6] = target: T2, MDM2 (res 2-125); assay: fluorescence anisotropy titration, intrinsic Trp fluorescence, PBS 5 mM DTT, 23 C
MDM2 (res 2-125) [7] = target: T2, MDM2 (res 2-125); assay: fluorescence anisotropy titration, MDM2 (res 2-125) titrated into the peptide, quadratic 1:1 fit with linear drift term; unit from the axis uM Mdm2
MDM2 (res 2-125) [8] = target: T2, MDM2 (res 2-125); assay: as described in Example 1 (method not retold)
MDM2 (res 2-125) [9] = target: T2, MDM2 (res 2-125); assay: fluorescence anisotropy titration, λex=280 nm; λex=280 nm
MDM2 (res 2-125) [10] = target: T2, MDM2 (res 2-125); assay: fluorescence anisotropy (Example 1, retold as a range); lower end of range retold from Example 1
MDM2 (res 2-125) [11] = target: T2, MDM2 (res 2-125); assay: fluorescence anisotropy (Example 1, retold as a range); upper end of range retold from Example 1
bovine serum albumin [12] = target: T3, bovine serum albumin; assay: fluorescence anisotropy, comparison of Kd
bovine serum albumin [13] = target: T3, bovine serum albumin; assay: fluorescence anisotropy titration of BSA into peptide
bovine serum albumin [14] = target: T3, bovine serum albumin; assay: fluorescence anisotropy titration of BSA into 200 nM peptide
bovine serum albumin [15] = target: T3, bovine serum albumin; assay: fluorescence anisotropy titration of BSA into 0.4 µM peptide
[16] = target: T1, Mdm2 (construct limits not stated at …); assay: method not given; affinity-matured Pep48T, estimated

With ACSDRFRNCPADEALCG (linker 2-9-16 via TBMB) [PK15L1-PK15L2 bicyclic] the “IC50 for inhibition of kallikrein activity” value (shortened to “IC50 for inhibition”) (kallikrein) was 13 nM.

In the case of H-ALCIFDLGFCSDRFRNCPADE-OH (linker 3-10-17 via TBMB) [X-CG4L1-PK15L1-Y bicyclic], the “IC50 for inhibition” value (kallikrein) is reported as 15000 nM.

B1: CG4L1-PK15L1-PK15L2 tricyclic (peptide)
peptide: ALCIFDLGFCSDRFRNCPADE
HELM: PEPTIDE1{A.L.C.I.F.D.L.G.F.C.S.D.R.F.R.N.C.P.A.D.E}|CHEM1{[c1c(C[*:1])cc(C[*:3])cc1C[*:2]]}$PEPTIDE1,CHEM1,3:R3-1:R1|PEPTIDE1,CHEM1,10:R3-1:R2|PEPTIDE1,CHEM1,17:R3-1:R3|PEPTIDE1,PEPTIDE1,1:R1-21:R2$$$V2.0
SMILES: CC[C@H](C)[C@@H]1NC(=O)[C@@H]2CSCc3cc4cc(c3)CSC[C@H](NC(=O)[C@H](CC(N)=O)NC(=O)[C@H](CCCNC(=N)N)NC(=O)[C@H](Cc3ccccc3)NC(=O)[C@H](CCCNC(=N)N)NC(=O)[C@H](CC(=O)O)NC(=O)[C@H](CO)NC(=O)[C@H](CSC4)NC(=O)[C@H](Cc3ccccc3)NC(=O)CNC(=O)[C@H](CC(C)C)NC(=O)[C@H](CC(=O)O)NC(=O)[C@H](Cc3ccccc3)NC1=O)C(=O)N1CCC[C@H]1C(=O)N[C@@H](C)C(=O)N[C@@H](CC(=O)O)C(=O)N[C@@H](CCC(=O)O)C(=O)N[C@@H](C)C(=O)N[C@@H](CC(C)C)C(=O)N2
B1 was tested, and the “IC50 for inhibition” value (kallikrein) was 15000 nM.

B2: PK15L1-CG4L1 bicyclic (peptide)
peptide: ACSDRFRNCIFDLGFCG
HELM: PEPTIDE1{A.C.S.D.R.F.R.N.C.I.F.D.L.G.F.C.G}|CHEM1{[c1c(C[*:1])cc(C[*:3])cc1C[*:2]]}$PEPTIDE1,CHEM1,2:R3-1:R1|PEPTIDE1,CHEM1,9:R3-1:R2|PEPTIDE1,CHEM1,16:R3-1:R3$$$V2.0
SMILES: CC[C@H](C)[C@@H]1NC(=O)[C@@H]2CSCc3cc(cc(c3)CSC[C@@H](C(=O)NCC(=O)O)NC(=O)[C@H](Cc3ccccc3)NC(=O)CNC(=O)[C@H](CC(C)C)NC(=O)[C@H](CC(=O)O)NC(=O)[C@H](Cc3ccccc3)NC1=O)CSC[C@H](NC(=O)[C@H](C)N)C(=O)N[C@@H](CO)C(=O)N[C@@H](CC(=O)O)C(=O)N[C@@H](CCCNC(=N)N)C(=O)N[C@@H](Cc1ccccc1)C(=O)N[C@@H](CCCNC(=N)N)C(=O)N[C@@H](CC(N)=O)C(=O)N2
With B2 the “IC50 for inhibition” value (kallikrein) was 200 nM.

B3: PK15L1-PEP48L1 bicyclic (peptide)
peptide: ACSDRFRNCVRFGWTCG
modifications: linker 2-9-16 via TBMB
notes: also called PK15L1-PEP48L1 bicyclic peptide; dual specific peptide comprising loops from PEP48 and PK15
With B3 the “IC50 for inhibition” value (kallikrein) was 11000 nM, the Kd [1] was 1550 nM and the Kd (MDM2 (res 2-125) [2]) was 1560 nM.

B4: bicyclic Fmoc-WGGGA-PEP48L1-PK15L1 (peptide)
peptide: WGGGACVRFGWTCSDRFRNCG
HELM: PEPTIDE1{[O=C(OCC1c2ccccc2-c2ccccc21)[*:2]].W.G.G.G.A.C.V.R.F.G.W.T.C.S.D.R.F.R.N.C.G.[am]}|CHEM1{[c1c(C[*:1])cc(C[*:3])cc1C[*:2]]}$PEPTIDE1,CHEM1,7:R3-1:R1|PEPTIDE1,CHEM1,14:R3-1:R2|PEPTIDE1,CHEM1,21:R3-1:R3$$$V2.0
SMILES: CC(C)[C@@H]1NC(=O)[C@@H](NC(=O)[C@H](C)NC(=O)CNC(=O)CNC(=O)CNC(=O)[C@H](Cc2c[nH]c3ccccc23)NC(=O)OCC2c3ccccc3-c3ccccc32)CSCc2cc3cc(c2)CSC[C@H](NC(=O)[C@H]([C@@H](C)O)NC(=O)[C@H](Cc2c[nH]c4ccccc24)NC(=O)CNC(=O)[C@H](Cc2ccccc2)NC(=O)[C@H](CCCNC(=N)N)NC1=O)C(=O)N[C@@H](CO)C(=O)N[C@@H](CC(=O)O)C(=O)N[C@@H](CCCNC(=N)N)C(=O)N[C@@H](Cc1ccccc1)C(=O)N[C@@H](CCCNC(=N)N)C(=O)N[C@@H](CC(N)=O)C(=O)N[C@H](C(=O)NCC(N)=O)CSC3
notes: also called Fmoc PEP48L1-PK15L1 bicyclic; FmocPEP48L1-PK15L1
B4 was tested, and the “IC50 for inhibition” value (kallikrein) was 17000 nM, the Kd (bovine serum albumin [3]) was 62 nM and the Kd [4] was < 1000 nM.

B5: PEP10 bicyclic peptide (synthetic peptide of phage clone 10 conjugated to TBMB) (peptide)
peptide: H-SCELWNPKCRLSPFECKG-OH
modifications: linker 2-9-16 via TBMB
notes: measured in PBS with 5 mM DTT; also called peptide 10
Binder B5 has a Kd (MDM2 (res 2-125) [5]) of 267 nM, a Kd (MDM2 (res 2-125) [6]) of 250 to 750 nM and a Kd (MDM2 (res 2-125) [7]) of 268 nM.

B6: PEP48 bicyclic peptide (synthetic peptide of phage clone 48 conjugated to TBMB) (peptide)
peptide: H-SCVRFGWTCDNSWHGCKG-OH
modifications: linker 2-9-16 via TBMB
notes: measured in PBS with 5 mM DTT; also called peptide 48; PEP48L1-PEP48L2 bicyclic peptide
Binder B6 has a Kd (MDM2 (res 2-125) [8]) of ~660 nM, a Kd (MDM2 (res 2-125) [5]) of 567 nM and a Kd (MDM2 (res 2-125) [9]) of 760 nM. For the same binder, the Kd (MDM2 (res 2-125) [6]) was 250 to 750 nM, the Kd (MDM2 (res 2-125) [10]) was ≥ 500 nM and the Kd (MDM2 (res 2-125) [11]) was ≤ 800 nM. For the same binder, the Kd (MDM2 (res 2-125) [7]) was 760 nM and 568 nM.

B7: Fmoc-FGSGD-NH2 (peptide)
peptide: FGSGD
HELM: PEPTIDE1{[O=C(OCC1c2ccccc2-c2ccccc21)[*:2]].F.G.S.G.D.[am]}$$$$V2.0
SMILES: NC(=O)[C@H](CC(=O)O)NC(=O)CNC(=O)[C@H](CO)NC(=O)CNC(=O)[C@H](Cc1ccccc1)NC(=O)OCC1c2ccccc2-c2ccccc21
B7 was tested, and the “fold tighter than the glycine variant (Fmoc-GGSGD-NH2)” value (bovine serum albumin [12]) was 8 fold and the Kd (bovine serum albumin [13]) was 160 nM.

B8: Fmoc-FGGGD-NH2 (peptide)
peptide: FGGGD
HELM: PEPTIDE1{[O=C(OCC1c2ccccc2-c2ccccc21)[*:2]].F.G.G.G.D.[am]}$$$$V2.0
SMILES: NC(=O)[C@H](CC(=O)O)NC(=O)CNC(=O)CNC(=O)CNC(=O)[C@H](Cc1ccccc1)NC(=O)OCC1c2ccccc2-c2ccccc21
Binder B8 has a Kd (bovine serum albumin [13]) of 200 nM.

B9: Fmoc-GGSGD-NH2 (peptide)
peptide: GGSGD
HELM: PEPTIDE1{[O=C(OCC1c2ccccc2-c2ccccc21)[*:2]].G.G.S.G.D.[am]}$$$$V2.0
SMILES: NC(=O)[C@H](CC(=O)O)NC(=O)CNC(=O)[C@H](CO)NC(=O)CNC(=O)CNC(=O)OCC1c2ccccc2-c2ccccc21
notes: also called the glycine variant
In the case of B9, the Kd (bovine serum albumin [14]) is reported as 1300 nM.

B10: Fmoc-WGSGD-NH2 (peptide)
peptide: WGSGD
HELM: PEPTIDE1{[O=C(OCC1c2ccccc2-c2ccccc21)[*:2]].W.G.S.G.D.[am]}$$$$V2.0
SMILES: NC(=O)[C@H](CC(=O)O)NC(=O)CNC(=O)[C@H](CO)NC(=O)CNC(=O)[C@H](Cc1c[nH]c2ccccc12)NC(=O)OCC1c2ccccc2-c2ccccc21
notes: also called Fmoc-Trp-GSGD
For B10, the “fold tighter than Fmoc-FGSGD-NH2” value (bovine serum albumin [12]) was 3 fold and the Kd (bovine serum albumin [15]) was ~60 nM.

Binder SGCVRFGWTCPTVMCGG (linker 3-10-15 via TBMB; not fully specified (N-terminus, C-terminus)) [Pep48T (affinity-matured Pep48 derivative, TBMB conjugate)] has a Kd [16] of ~100 nM.
